Experiments:
[1] = tested on: CCR5^+ Jurkat cells; assay: Blocking of LukE/D cytotoxicity by CCR5 antagonists, antibodies and ligands, CellTiter; assay type: cell-based, human; conditions: CCR5^+ Jurkat preincubated 30 minutes, then LukE/D, read 1 hour post-intoxication
Procedure: One hour post-intoxication, the viability of the cells was determined by CellTiter. […] One hour post-intoxication, the viability of the cells was determined by CellTiter. Results represent the average of triplicate samples±S.D.
To determine if targeting CCR5 blocks LukE/D, the effect of several CCR5 antagonist and ligands on the ability of LukE/D to kill CCR5^+ cells was evaluated. […] In addition, the potential of monoclonal antibodies directed against CCR5 to protect cells from LukE/D cytotoxicity was also evaluated following the experimental protocol described for the CCR5 antagonist. […] Lastly, the potential inhibitory effect of natural ligands of CCR5 was also evaluated. […] Collectively, these findings indicate that the potent cytotoxic activity of LukE/D could be blocked by employing CCR5 antagonist and/or ligands.

[2] = tested on: primary human macrophages; assay: LukE/D cytotoxicity towards primary phagocytes, percent death by flow cytometry; conditions: 1 hour post-intoxication
Procedure: (§1) Cells were then stained with an anti-CCR5 antibody and a viability dye prior analysis by flow cytometry. […] One hour post-intoxication, the percent death was determined by flow cytometry.
(§2) In addition to T lymphocytes, the cytotoxic activity of LukE/D towards primary human macrophages and dendritic cells was also evaluated.

[3] = tested on: primary human dendritic cells; assay: as above; conditions: 1 hour post-intoxication
Procedure: as §1, §2

[4] = tested on: CCR5^+ Jurkat cells; assay: Binding of GFP-fused LukE/D toxin to plasma membrane, flow cytometry; parameters: species or system human
Procedure: (§6) To elucidate the mechanism by which LukE/D utilizes CCR5 to target and kill host cells, Jurkat (CCR5^−) and CCR5^+ Jurkat (CCR5^+) cells were incubated with a GFP-fused LukE/D toxin (^GFPLukE/D) and binding of the fluorescent toxin to the plasma membrane of the cells monitored by flow cytometry.

[5] = tested on: CCR5^+ Jurkat cells; assay: LukE/D pore formation, ethidium bromide incorporation and microscopy; assay type: cell-based, human
Procedure: Binding of the toxin to the plasma membrane of the cells was monitored via flow cytometry. […] Pore formation was measured over-time by monitoring ethidium bromide incorporation. […] Intoxicated cells were monitored by light (top panels) and by fluorescence microscopy to determine ethidium bromide uptake. Representative images are shown.

[6] = tested on: CCR5^+ Jurkat; assay: LukE/D cytotoxicity towards CCR5-transduced cells, CellTiter; assay type: cell-based, human; conditions: Jurkat transduced with CCR5 cDNA, 1 hour post-intoxication
Description: FIG. 3 illustrates that the chemokine receptor CCR5 is necessary and sufficient to renders mammalian cells susceptible to LukE/D mediated cytotoxicity. Parental Jurkat (top, left) and GHOST cells (bottom, left) or these cells transduced with a CCR5 cDNA (Jurkat CCR5^+, top/right; GHOST CCR5^+, bottom/right), were intoxicated with LukE, LukD, or equimolar mixture of LukE+LukD (LukE/D). One hour post-intoxication cell viability was monitored with CellTiter, where cells treated with medium were set at 100% viable. Results represent the average of triplicate samples±S.D.
To directly determine the contribution of CCR5 for the ability of LukE/D to target and kill host cells, CCR5 was introduced into Jurkat cells by viral transduction of the CCR5 cDNA resulting in CCR5^+ Jurkat. Jurkat and CCR5^+ Jurkat cells were subsequently intoxicated with different concentrations of either individual subunits (i.e., LukE or LukD) or equimolar mixtures of LukE+LukD (LukE/D).

[7] = tested on: Hut cells (T lymphocyte-like cells); assay: LukE/D cytotoxicity, cell viability by CellTiter; assay type: cell-based, human; conditions: Hut cells (over-express CCR5), 1 hour post-intoxication
Procedure: (§3) Cytotoxicity was determined by a cell viability assay where indicated human immune cells lines were intoxicated with different concentrations of an equimolar mixture of LukE+LukD (LukE/D). Cell viability was monitored 1 hour post-intoxication using CellTiter, where cells treated with medium were set at 100% viable. Results represent the average of triplicate samples±S.D. FIG. 2B depicts that LukE/D kills Hut cell but not other human T lymphocyte-like cell lines. Indicated cell lines were intoxicated with different concentrations of an equimolar mixture of LukE+LukD (LukE/D) and cell viability monitored as in FIG. 2A. Results represent the average of triplicate samples±S.D.
(§4) One mechanism by which LukE/D could be blocked is by inhibiting the interaction of the toxin with its receptor. As an initial strategy to understand how LukE/D interact with host cells, a collection of human immune cell lines were incubated (“intoxicated”) with different concentrations of either individual subunits (i.e., LukE or LukD) or an equimolar mixture of LukE+LukD (LukE/D). […] Upon further investigation, it was discovered that the Hut cells employed the experiments described above have been engineered to over-express the CC-chemokine receptor 5 (CCR5), a receptor for the chemokines MIP-1α, MIP-1β, and RANTES.

[8] = tested on: H9; assay: LukE/D cytotoxicity, cell viability by CellTiter; assay type: cell-based, human; conditions: H9 lymphocyte cell line
Procedure: as §3, §4

[9] = tested on: Jurkat cells; assay: LukE/D cytotoxicity, cell viability by CellTiter; assay type: cell-based, human; conditions: 1 hour post-intoxication
Procedure: as §3, §4

[10] = tested on: PM1; assay: LukE/D cytotoxicity, cell viability by CellTiter; assay type: cell-based, human; conditions: PM1 lymphocyte cell line
Procedure: as §3, §4

[11] = tested on: THP1 cells (human monocytes); assay: LukE/D cytotoxicity, cell viability by CellTiter; assay type: cell-based; conditions: 1 hour post-intoxication
Procedure: as §3, §4

[12] = tested on: T lymphocytes from the Δ32CCR5 donor; assay: LukE/D intoxication of primary T lymphocytes, viability by flow cytometry; conditions: T lymphocytes of Δ32CCR5 (CCR5^−) donor
Procedure: as §1
(§5) If CCR5 is the receptor of LukE/D, then primary host cells that their surfaces are decorated with CCR5 (e.g., T lymphocytes, macrophages, natural killer cells, dendritic cells, etc.) will be susceptible to LukE/D mediated cell death. To investigate this in more detail, primary human peripheral blood mononuclear cells (PBMC) were isolated from a wild type CCR5 (CCR5^+) donor and a Δ32CCR5 (CCR5^−) donor and the T lymphocytes expanded followed by intoxication with LukE/D and the viability of the cells determined by flow cytometry.

[13] = tested on: Primary human T lymphocytes from CCR5^+ donor; assay: as above; assay type: cell-based; conditions: 5.4% in media treated cells
Procedure: as §1, §5

[14] = tested on: parental CCR5^− Jurkat cells; assay: Binding of GFP-fused LukE/D toxin to plasma membrane, flow cytometry; parameters: species or system human
Procedure: as §6

**Q.** How did the “blocking of LukE/D mediated cytotoxicity” value [1] turn out when `Cc1ccc(-c2ccc3c(c2)C=C(C(=O)Nc2ccc(C[N+](C)(C)C4CCOCC4)cc2)CCC3)cc1.[Cl-]` [TAK-779] was run?
**A.** potently blocked

**Q.** How did the “cytotoxic activity (killing)” value [2] turn out when “LukD: S. aureus Leukocidin D protein subunit, SEQ ID NOs: 12-22” was run?
**A.** not LukD potently killed

**Q.** And the “cytotoxic activity (killing)” value [3]?
**A.** not LukD potently killed

**Q.** “RANTES: natural ligand (chemokine) of CCR5” was tested. Which “blocking of LukE/D mediated cytotoxicity” value [1] did it give?
**A.** potently inhibit

**Q.** With Maraviroc [reference compound] as the molecule, how does the “inhibition of LukE/D binding to cells” value ([4]; CCR5^+ Jurkat pre-incubated with Maraviroc, then GFP-labeled LukE/D) read?
**A.** potently inhibited

**Q.** What about the “blocking of LukE/D mediated pore formation” value ([5]; pre-incubation with Maraviroc, ethidium bromide incorporation) of the same molecule?
**A.** potently blocked

**Q.** And the “blocking of LukE/D cell swelling” value ([5]; pre-incubation with Maraviroc, microscopy)?
**A.** fully blocked

**Q.** With `COC[C@@H](c1ccc(C(F)(F)F)cc1)N1CCN(C2(C)CCN(C(=O)c3c(C)ncnc3C)CC2)C[C@@H]1C` [Vicriviroc] as the molecule, how does the “blocking of LukE/D mediated cytotoxicity” value [1] read?
**A.** potently blocked

**Q.** LukE/D was tested. Which “cytotoxic activity (killing)” value [2] did it give?
**A.** potently killed

**Q.** And the “cytotoxic activity (killing)” value [3]?
**A.** potently killed

**Q.** And the “binding of toxin to plasma membrane” value ([4]; GFP-fused LukE/D, CCR5^+ Jurkat)?
**A.** binds

**Q.** And the LukE/D mediated toxicity [6]?
**A.** susceptible

**Q.** And the cytotoxicity [7]?
**A.** exhibits cytotoxicity

**Q.** And the cytotoxicity [8]?
**A.** only the Hut cells were susceptible

**Q.** What about the cytotoxicity [9] of the same molecule?
**A.** not towards Jurkat cells

**Q.** What about the cytotoxicity [10] of the same molecule?
**A.** only the Hut cells were susceptible

**Q.** What about the cytotoxicity [11] of the same molecule?
**A.** exhibits cytotoxicity

**Q.** And the LukE/D mediated cytotoxicity [12]?
**A.** highly refractory

**Q.** What about the cell death [13] of the same molecule?
**A.** 34%

**Q.** And the “pore formation in plasma membrane” value ([5]; ethidium bromide incorporation over time)?
**A.** forms pores

**Q.** What about the cell swelling ([5]; light and fluorescence microscopy) of the same molecule?
**A.** associated with cell swelling

**Q.** What about the “binding of toxin to plasma membrane” value [14] of the same molecule?
**A.** not to the parental CCR5^− Jurkat cells

B1: MIP-1β: natural ligand (chemokine) of CCR5 (protein)
chain: APMGSDPPTACCFSYTARKLPRNFVVDYYETSSLCSQPAVVFQTKRSKQVCADPSESWVQEYVYDLELN
**Q.** With B1 as the molecule, how does the “blocking of LukE/D mediated cytotoxicity” value [1] read?
**A.** potently inhibit
